Tests used:
[1] = target: SAKI (Substrate of AIM-1 kinase)
Chain of SAKI (Substrate of AIM-1 kinase) (chain, as listed by the source): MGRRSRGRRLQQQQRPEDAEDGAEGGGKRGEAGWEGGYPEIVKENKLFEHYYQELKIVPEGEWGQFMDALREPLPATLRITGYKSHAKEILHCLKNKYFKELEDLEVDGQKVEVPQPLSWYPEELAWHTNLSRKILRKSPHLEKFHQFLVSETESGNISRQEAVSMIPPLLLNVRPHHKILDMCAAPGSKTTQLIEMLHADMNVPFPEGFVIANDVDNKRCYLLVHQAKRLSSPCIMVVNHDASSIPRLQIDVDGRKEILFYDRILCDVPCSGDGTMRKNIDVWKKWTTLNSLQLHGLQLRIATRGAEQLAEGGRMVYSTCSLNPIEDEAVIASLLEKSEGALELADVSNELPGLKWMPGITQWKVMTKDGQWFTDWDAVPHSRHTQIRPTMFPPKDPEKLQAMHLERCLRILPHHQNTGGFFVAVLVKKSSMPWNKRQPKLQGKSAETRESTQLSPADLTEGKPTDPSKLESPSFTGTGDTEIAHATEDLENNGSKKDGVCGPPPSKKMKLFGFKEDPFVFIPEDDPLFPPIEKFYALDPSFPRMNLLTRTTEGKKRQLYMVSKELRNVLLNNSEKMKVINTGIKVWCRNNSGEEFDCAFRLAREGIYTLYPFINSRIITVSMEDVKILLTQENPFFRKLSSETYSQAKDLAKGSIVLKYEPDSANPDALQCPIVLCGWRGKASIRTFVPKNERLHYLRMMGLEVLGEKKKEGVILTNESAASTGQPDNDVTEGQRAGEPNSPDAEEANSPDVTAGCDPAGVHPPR

Protein | immunoblotting with the anti-H3 histone Ser-10 phosphorylation site antibody after expression of the AIM-1 kinase-deficient mutant protein in HeLa [1] | in-vitro phosphorylation experiments (H3 histone, P68431)
AIM-1 (Aurora and Ipl1-like midbody-associated protein) (protein) MAQKENSYPWPYGRQTAPSGLSTLPQRVLRKEPVTPSALVLMSRSNVQPTAAPGQKVMENSSGTPDILTRHFTIDDFEIGRPLGKGKFGNVYLAREKKSHFIVALKVLFKSQIEKEGVEHQLRREIEIQAHLHHPNILRLYNYFYDRRRIYLILEYAPRGELYKELQKSCTFDEQRTATIMEELADALMYCHGKKVIHRDIKPENLLLGLKGELKIADFGWSVHAPSLRRKTMCGTLDYLPPEMIEGRMHNEKVDLWCIGVLCYELLVGNPPFESASHNETYRRIVKVDLKFPASVPMGAQDLISKLLRHNPSERLPLAQVSAHPWVRANSRRVLPPSALQSVA | there was a protein that is seemingly phosphorylated by AIM-1 in the region close to 100 kDa | both AIM-1 and Aik phosphorylated H3 histone
Aik (protein) MDRSKENCISGPVKATAPVGGPKRVLVTQQFPCQNPLPVNSGQAQRVLCPSNSSQRIPLQAQKLVSSHKPVQNQKQKQLQATSVPHPVSRPLNNTQKSKQPLPSAPENNPEEELASKQKNEESKKRQWALEDFEIGRPLGKGKFGNVYLAREKQSKFILALKVLFKAQLEKAGVEHQLRREVEIQSHLRHPNILRLYGYFHDATRVYLILEYAPLGTVYRELQKLSKFDEQRTATYITELANALSYCHSKRVIHRDIKPENLLLGSAGELKIADFGWSVHAPSSRRTTLCGTLDYLPPEMIEGRMHDEKVDLWSLGVLCYEFLVGKPPFEANTYQETYKRISRVEFTFPDFVTEGARDLISRLLKHNPSQRPMLREVLEHPWITANSSKPSNCQNKESASKQS | – | both AIM-1 and Aik phosphorylated H3 histone

From patent US20090305255
